Laboratory results taken from US20040258747A1 (G GASLINI CHILDREN S HOSPITAL, published 2004).
Ends that are not written are not given here.

Target: T1, CD13 (aminopeptidase N) as expressed on THP-1 cells (human acute monocytic leukemia) (human, UniProt P15144 2-967)
T1 construct: whole, on cells; The CD13 form on THP-1 is recognised by WM15 but not by the NGR liposomes
Assay: FACS of doxorubicin fluorescence, THP-1 cells 1 h at 4 C

T1 sequence (P15144 2-967): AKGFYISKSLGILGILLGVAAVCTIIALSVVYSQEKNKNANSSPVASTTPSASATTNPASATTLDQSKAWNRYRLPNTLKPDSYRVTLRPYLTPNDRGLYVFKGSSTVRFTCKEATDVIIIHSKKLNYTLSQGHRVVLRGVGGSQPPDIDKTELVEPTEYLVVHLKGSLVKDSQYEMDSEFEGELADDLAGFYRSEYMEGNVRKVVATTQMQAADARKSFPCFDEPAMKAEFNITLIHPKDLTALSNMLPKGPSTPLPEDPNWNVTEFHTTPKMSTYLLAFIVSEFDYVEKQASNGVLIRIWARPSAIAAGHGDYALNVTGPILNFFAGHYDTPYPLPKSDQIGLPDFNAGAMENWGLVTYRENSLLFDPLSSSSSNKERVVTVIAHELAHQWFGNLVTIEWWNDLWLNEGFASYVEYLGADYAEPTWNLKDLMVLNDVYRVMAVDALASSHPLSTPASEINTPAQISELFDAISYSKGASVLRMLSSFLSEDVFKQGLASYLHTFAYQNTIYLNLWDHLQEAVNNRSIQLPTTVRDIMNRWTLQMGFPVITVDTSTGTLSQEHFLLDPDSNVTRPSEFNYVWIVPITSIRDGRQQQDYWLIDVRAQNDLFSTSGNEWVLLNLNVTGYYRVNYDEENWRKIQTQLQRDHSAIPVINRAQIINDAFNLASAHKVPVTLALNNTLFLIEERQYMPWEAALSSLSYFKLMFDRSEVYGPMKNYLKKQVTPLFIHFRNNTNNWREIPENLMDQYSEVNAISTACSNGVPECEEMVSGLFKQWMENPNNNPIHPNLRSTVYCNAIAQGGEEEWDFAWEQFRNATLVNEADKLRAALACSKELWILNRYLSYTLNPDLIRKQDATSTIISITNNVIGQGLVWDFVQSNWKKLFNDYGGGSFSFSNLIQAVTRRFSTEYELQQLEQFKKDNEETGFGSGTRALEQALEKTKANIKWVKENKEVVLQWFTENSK

binding result: no binding
B1: ARA-targeted (sham-targeted) sterically stabilized liposomal doxorubicin (ARA-SL[DXR]): control peptide GARAGGVRSSSRTPSDKYC coupled to the liposome surface (peptide)
peptide: GARAGGVRSSSRTPSDKYC(PEG2000‑DSPE‑MAL (liposome))
modifications: not fully specified; also: on surface of doxorubicin-loaded sterically stabilized liposome
notes: Control formulation; Same liposome as NGR-SL[DXR], with NGR replaced by ARA in the peptide; also called mismatched peptide ARA
